According to PMC9509318 (2022):

T1: Pfs48/45 full-length ectodomain (Plasmodium falciparum, UniProt Q8I6T1 27-427)
T1 chain: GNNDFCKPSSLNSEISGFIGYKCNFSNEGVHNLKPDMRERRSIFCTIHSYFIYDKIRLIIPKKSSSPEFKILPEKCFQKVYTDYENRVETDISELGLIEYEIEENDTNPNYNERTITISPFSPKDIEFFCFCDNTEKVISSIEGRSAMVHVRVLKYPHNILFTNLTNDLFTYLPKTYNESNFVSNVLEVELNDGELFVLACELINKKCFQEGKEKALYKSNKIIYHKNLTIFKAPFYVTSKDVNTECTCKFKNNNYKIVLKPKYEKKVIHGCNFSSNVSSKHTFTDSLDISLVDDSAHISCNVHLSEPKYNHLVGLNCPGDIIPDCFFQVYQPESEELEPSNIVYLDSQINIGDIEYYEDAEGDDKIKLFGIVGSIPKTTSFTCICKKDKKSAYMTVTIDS


Columns and labels:
[1] = target: T1, Pfs48/45 full-length ectodomain; experiment: SPR
[2] = target: T1, Pfs48/45 full-length ectodomain; experiment: SPR

| Binder | Kd [1] [nM] | koff [2] [s⁻¹] |
| --- | --- | --- |
| 85RF45.1 monoclonal antibody (antibody, V domains shown) VH: EVQLVESGGGLLQPGRSLKLSCVASGFTFNNYWMSWIRQAPGKGLEWIASISNIGGTIYYPDSVKGRFTISRDSAQNTLYLQMNSLRSEDTATYYCTRDLRMSDYFDYWGQGVMVTVSS VL: QFVLSQPNSVSTNLGSTVKLSCKRSTGNIGSNYVSWYQHHEGRSPTTMIYRDDQRPDGVPDRFSGSIDRSSNSALLTIDNVQTEDEAAYFCHSYSTGMYIFGGGTKLTVL | 1.34 | – |
| 10D8 monoclonal antibody (antibody, V domains shown) VH: EVMLVESGGDLVKPGGSLKVSCAASGFTFSNYAMSWVRQTPEKRLEWVATISSGASYTHYPDSVKGRFTISRDNAKNTLYLQMSSLRSEDTAMYYCGRQVNRHDRALDAMDYWGQGTSVTVSP VL: not shown | 35.8 | 0.0027 |
| 32F3 monoclonal antibody (antibody, V domains shown) VH: DVKLVESGGGLVKLGGSLKLSCAASGFTFSSYYMSWVRQTPEKRLELVAAINNNGGSTYYPDTVKGRFTISRDNAKNTLNLQMNSLKSEDTALYYCTRQHYGNLYFFDYWGQGTTLTVSS VL: QIVLSQSPAILSASPGEKVTMTCRASSSVTYIHWYQQKPGSSPKPWIQATSSLASGVPARFSGSGSGTSYSLSISRVEAEDAATYYCQQWSSNPLTFGAGTKLELK | 4.1 | 0.000121 |
